Experimental data taken from patent publication US20230270861A1, “Inhibitors of the Artemin Pathway for Treatment of Cancer” (The University of Chicago, priority 2020, published 2023).

How the values were obtained:
[1] = cited from earlier work
Ter-cells [2] = assay: Spleen size, splenocytes and splenic Ter-cells by flow cytometry; format: in vivo, mouse
Description: (§1) Tumor models and treatments. 1×10^6 MC38, LLC, or B16-SIY tumor cells were subcutaneously injected into the flank of mice. On day 10 after tumor inoculation, tumors were either irradiated with one dose of 20 Gy or mice received sham treatment. For anti-PD-L1 treatment experiments, 200 μg anti-PD-L1 (10F.9G2) or isotype control was given by i.p. every three days for a total of four times starting on day 10 after tumor inoculation. For type I IFN blockade experiments, 200 μg anti-IFNAR1 were intratumorally injected on days 0 and 2 after irradiation. For CD4 or CD8 T cell depletion experiments, 200 μg anti-CD4 or anti-CD8 mAb was delivered four times by i.p. injection every 3 days starting 1 day before therapies. Artemin-neutralizing antibody was delivered i.t. at 1 μg/mouse starting on day of irradiation, every 2 days for 7 doses. For Ter-cell depletion, anti-ter119 was injected i.p. at 20 μg/mouse every 2 days for 4 doses. For Ter-cell or artemin treatment groups, mice were administered 1×10^7 purified Ter cells i.v. every other day for a total of three doses, or mice were treated with 0.5 μg/mouse artemin i.t. every other day starting on day 0 of therapies throughout the studies. For EPO treatment groups, mice were treated with 20 U/mouse EPO i.v. every other day throughout the studies, starting on day 0 of the therapies. IFN-γ was administered through intrasplenic injection on day 15 post tumor implantation at 2 μg/mouse for 1 dose. LOXO-292 was administered by oral gavaging at 100 μg/mouse/day throughout the entire studies, starting on day 0 of the therapies. Spleens were harvested on day 20 or at indicated times post-inoculation for analysis of spleen size or splenic cells. Tumor size was monitored and calculated with the formula for area (length×width).
(§2) Flow Cytometry. […] Single cell suspensions were blocked with anti-FcR (2.4G2, BioXcell) and then stained with fluorescence-labeled antibodies. Flow cytometry was performed on BD LSR Fortessa at The University of Chicago core facility and data were analyzed with FlowJo software.

LLC tumor [3] = assay: Tumor growth of LLC tumor-bearing mice treated with IR or anti-PD-L1 plus test agent; format: in vivo, mouse; settings: LLC tumor-bearing B6 mice; for Tumor growth: influence on the therapeutic effect of IR and PD-L1 blockade: agent combined with 20 Gy IR or anti-PD-L1
Description: as §1

LLC tumor [4] = assay: Spontaneous lung metastasis (number of lung nodules) in LLC tumor-bearing mice; format: in vivo, mouse; settings: murine LLC model; combined with IR or anti-PD-L1
Description: FIG. 55. Number of lung nodules in LLC tumor-bearing mice at the end of tumor growth measurement: anti-PD-L1 treatment. B6 mice were inoculated with LLC cells. On day 10 post inoculation, tumor-bearing mice were treated with anti-PD-L1. Splenectomy was performed 1 day before treatments. Representative data are shown from two or three experiments conducted with 3-5 mice or samples per group. Data are represented as mean±SD. **p<0.01 and ***p<0.001.
FIGS. 62A-62B. Number of lung modules. B6 mice were inoculated with LLC cells. On day 10 post inoculation, tumor-bearing mice were treated with either IR (FIG. 62A) or anti-PD-L1 (FIG. 62B) plus LOXO-292. Splenectomy was performed 1 day before treatments. […] Representative data are shown from two or three experiments conducted with 3-5 mice or samples per group. Data are represented as mean±SD. *p<0.05, **p<0.01, and ***p<0.001.
Tumor models and treatments. 1×10^6 MC38, LLC, or B16-SIY tumor cells were subcutaneously injected into the flank of mice. On day 10 after tumor inoculation, tumors were either irradiated with one dose of 20 Gy or mice received sham treatment. For anti-PD-L1 treatment experiments, 200 μg anti-PD-L1 (10F.9G2) or isotype control was given by i.p. every three days for a total of four times starting on day 10 after tumor inoculation. […] Tumor size was monitored and calculated with the formula for area (length×width).

[5] = tested on: p-AKT and p-ERK in LLC cells; assay: Western blot of p-AKT and p-ERK in LLC cells treated with ARTN and LOXO-292; format: cell-based, mouse; settings: 100 ng/mL ARTN and 1 μg/mL LOXO-292
Description: FIGS. 61A-61C. Tumor growth of LLC tumor-bearing mice treated with LOXO-292 and either IR (FIG. 61A) or anti-PD-L1 (FIG. 61B). (FIG. 61C) p-AKT and p-ERK in LLC cells treated with 100 ng/mL ARTN and 1 μg/mL LOXO-292 were detected by western blot. Representative data are shown from two or three experiments. Data are represented as mean±SD. *p<0.05, **p<0.01, and ***p<0.001.
Western Blot Analysis. Whole-cell protein was extracted with Triton-X100 buffer (150 mM sodium chloride, 50 mM Tris, 1% Triton-X100; pH 8.0) with proteinase inhibitors (Thermo Scientific®). Immuno-blotting analyses were performed as previously described (Hou, Y., Liang, H., Rao, E., Zheng, W., Huang, X., Deng, L., Zhang, Y., Yu, X., Xu, M., Mauceri, H., et al. (2018). Non-canonical NF-kappaB Antagonizes STING Sensor-Mediated DNA Sensing in Radiotherapy. Immunity 49, 490-503 e494). The amount of loaded protein was normalized to GAPDH (60004-1-Ig, Proteintech Group) or actin (8226, Abcam).

Ter-cells [6] = assay: Splenic cells by flow cytometry after intrasplenic IFN-γ injection in LLC-bearing mice; format: in vivo, mouse
Description: FIG. 27. Apoptosis of splenic Ter-cells as analyzed by flow cytometry at indicated times post-injection. B6 mice were inoculated with LLC on day 0 and recombinant mouse IFN-γ was administered through intrasplenic injection on day 15. Representative data are shown from two or three experiments conducted with 3-5 mice per group. Data are represented as mean±SD. *p<0.05, **p<0.01, and ***p<0.001.
FIG. 28A-28C. Mechanism of IR-induced Ter-cell reduction in spleen. (FIG. 28A) Apoptosis of splenic CD45^+ immune cells, MDSCs, and CD8^+ T cells as analyzed by flow cytometry at indicated time post IFN-γ intrasplenic injection. (FIG. 28B) The percentage of CD8^+ T cells were analyzed by flow cytometry at indicated time post IFN-γ intrasplenic injection. (FIG. 28C) […] expression on splenic Ter-cells on day 3 post IFN-γ intrasplenic injection. Representative data are shown from two or three experiments conducted with 3-5 mice or samples per group. Data are represented as mean±SD. *p<0.05, **p<0.01, and ***p<0.001.
as §1, with “IFN-γ was administered through intrasplenic injection on day 15 post tumor implantation at 2 μg/mouse for 1 dose. LOXO-292 was administered by oral gavaging at 100 μg/mouse/day throughout the entire studies, starting on day 0 of the therapies. Spleens were harvested on day 20 or at indicated times post-inoculation for analysis of spleen size or splenic cells.” left out
as §2

artemin = assay: Artemin levels in serum (ELISA) and artemin mRNA in spleen (qPCR); format: in vivo, mouse; settings: LLC tumor-bearing mice treated with IR or anti-PD-L1 plus EPO i.v.
Description: ELISA. Tumor tissues were homogenized in PBS with protease inhibitor followed by the addition of Triton X-100. Serum was collected on day 20 post-tumor inoculation or at indicated times. The concentration of artemin or TGF-β was measured with artemin ELISA Kit (E03A0032 for mouse and E01A0032 for human, BlueGene Biotechnology), or TGF-β1 Mouse ELISA Kit (BMS608-4, Invitrogen).
Real-time PCR assay. mRNA from tumor cells or splenocytes was isolated using TRIzol according to the manufacturer's instructions (Invitrogen). cDNA was synthesized from pd(N)6-primed mRNA reverse transcription using M-MLV superscript reverse transcriptase. Real-time PCR kits (SYBR Premix Ex Taq™, DRR041A) were purchased from Takara Bio Inc. PCR was performed using a CFX96 (Bio-Rad). mRNA specific for the housekeeping gene GAPDH was measured and used as an internal control. The primers for artemin were 5′-TACTGCATTGTCCCACTGCCTCC-3′ (SEQ ID NO: 1) for the upstream primer (UP) and 5′-TCGCAGGGTTCTTTCGCTGCACA-3′ (SEQ ID NO: 2) for the downstream primer (DP); GAPDH: 5′-AGACCAGCCTGAGCAAAAGA-3′ (SEQ ID NO: 3) for UP and 5′-CTAGGCTGGAGTGCAGTGGT-3′ (SEQ ID NO: 4) for DP.

[7] = LLC tumor-bearing mice, intra-splenic injection

CO[C@]1(C(=O)N[C@@H](C)c2ccc(-n3cc(F)cn3)nc2)CC[C@H](c2nc(C)cc(Nc3cc(C)[nH]n3)n2)CC1 [BLU-677]
Outcomes for patients with RET fusion-positive cancers [1]: improved outcomes

IFN-α
Ter-cell accumulation in spleen after intra-tumor injection (Ter-cells [2]; WT mice bearing LLC or B16-SIY tumors, i.t.): reduced Ter-cell accumulation

rhEPO: Recombinant human erythropoietin used for the treatment of anemia in cancer patients
Survival benefit in cancer patients treated by RT ([1]; several clinical trials): detrimental effects

COc1ccc(CN2C3CC2CN(c2ccc(-c4cc(OCC(C)(C)O)cn5ncc(C#N)c45)cn2)C3)cn1 [LOXO-292]
Tumor growth: therapeutic effect of IR and PD-L1 blockade in the context of EPO treatment (LLC tumor [3]; IR or anti-PD-L1 plus EPO plus agent): restored the therapeutic effects of IR and PD-L1 blockade
Tumor growth: influence on the therapeutic effect of IR and PD-L1 blockade (LLC tumor [3]): enhanced the effects of IR and PD-L1 blockade
Spontaneous lung metastasis: influence on the effects of IR and PD-L1 blockade (LLC tumor [4]): promoted the effects of IR and PD-L1 blockade
Artemin-induced activation of downstream signaling (p-AKT, p-ERK) [5]: inhibited artemin-induced activation of downstream signaling
Outcomes for patients with RET fusion-positive cancers [1]: improved outcomes

B1: IFN-γ: Recombinant mouse IFN-γ (315-05) from Peprotech, intrasplenic injection (protein, UniProt P01580 23-155, looked up)
Interferon gamma: HGTVIESLESLNNYFNSSGIDVEEKSLFLDIWRNWQKDGDMKILQSQIISFYLRLFEVLKDNQAISNNISVIESHLITTFFSNSKAKKDAFMSIAKFEVNNPQVQRQAFNELIRVVHQLLPESSLRKRKRSRC
Abundance of CD8+ T cells in spleen (Ter-cells [6]; [7]): restored the abundance
Apoptosis of immune cells, including MDSCs and CD8+ T cells (Ter-cells [6]; [7]): did not change apoptosis levels
Apoptosis of splenic Ter-cells (Ter-cells [6]; LLC tumor-bearing mice, intra-splenic injection, 3 days after treatment): increased apoptosis of Ter-cells
MHC I expression on Ter-cells (Ter-cells [6]; day 3 post intrasplenic injection): enhanced the MHC I expression

B2: EPO: recombinant erythropoietin (959-ME) from R&D Systems (protein, UniProt P07321 27-192, looked up)
Erythropoietin: APPRLICDSRVLERYILEAKEAENVTMGCAEGPRLSENITVPDTKVNFYAWKRMEVEEQAIEVWQGLSLLSEAILQAQALLANSSQPPETLQLHIDKAISGLRSLTSLLRVLGAQKELMSPPDTTPPAPLRTLTVDTFCKLFRVYANFLRGKLKLYTGEVCRRGDR
Tumor growth: influence on the therapeutic effect of IR and PD-L1 blockade (LLC tumor [3]): inhibited the therapeutic effect of both IR and PD-L1 blockade
Ter-cell accumulation under IR or PD-L1 blockade (Ter-cells [2]; LLC tumor-bearing mice treated with IR or anti-PD-L1 plus EPO i.v.): diminished the effects of IR and PD-L1 blockade
Spleen size and Ter-cell accumulation in naive mice (Ter-cells [2]; naive B6 mice, i.v. and s.c. routes): increased spleen size and Ter-cell accumulation
Level of secreted artemin in serum under IR or PD-L1 blockade (artemin): diminished the effects of IR and PD-L1 blockade
